Consider three molecules from patent US20140349340A1 (DSM SINOCHEM PHARMACEUTICALS NETHERLANDS B V, published 2014).

Substitutions are numbered along the chain they refer to.

To fix the notation:
B1: MbtH-like protein VMbtH (other)
chain: MTNPFDNEDGTFFVLVNDEGQHSLWPTFAEVPAGWTRVHGEATRQECLAYVEENWTDLRPKSLIQALGA
notes: Expressed from pACYCtac-VMbtH in E. coli without a His-tag
B2: MbtH-like protein Tcp13 (other)
chain: MTNPFDNEDGSFLVLVNGEGQHSLWPAFAEVPDGWTGVHGPASRQDCLGYVEQNWTDLRPKSLISQISD
notes: Expressed from pACYCtac-Tcp13 in E. coli without a His-tag
B3: MbtH-like protein Tcp17 (other)
chain: B2 chain with K61R, I64V, S65E, I67A, S68D, D69A
notes: Expressed from pACYCtac-Tcp17 in E. coli without a His-tag

Chain of Tcp11_M1_A (Actinoplanes teichomyceticus) (chain, as listed by the source): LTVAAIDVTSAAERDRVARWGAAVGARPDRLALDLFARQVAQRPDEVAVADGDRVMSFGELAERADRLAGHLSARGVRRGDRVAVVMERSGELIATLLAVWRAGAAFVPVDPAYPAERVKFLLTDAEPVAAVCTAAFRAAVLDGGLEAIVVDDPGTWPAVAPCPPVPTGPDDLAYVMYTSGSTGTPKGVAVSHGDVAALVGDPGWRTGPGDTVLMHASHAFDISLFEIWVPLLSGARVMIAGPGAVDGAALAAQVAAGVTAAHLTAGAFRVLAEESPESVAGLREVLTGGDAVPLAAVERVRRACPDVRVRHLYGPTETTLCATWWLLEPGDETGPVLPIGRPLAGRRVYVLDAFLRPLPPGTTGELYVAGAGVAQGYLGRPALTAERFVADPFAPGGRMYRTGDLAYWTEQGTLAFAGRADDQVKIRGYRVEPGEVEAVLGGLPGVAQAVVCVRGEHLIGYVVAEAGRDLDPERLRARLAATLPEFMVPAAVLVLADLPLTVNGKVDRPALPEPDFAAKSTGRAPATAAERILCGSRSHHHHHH

One assay has as its target ComB_M1_A (Streptomyces lavendulae). In words: His-tag (TALON) co-purification after co-expression in E. coli, SDS-PAGE.
As for B1, the binding result was “binds”.

For the molecule B2, the binding result is recorded as “binds”.

Take B3: the binding result is listed as “binds”.

In a further assay the target is Veg8_M1_ATE (uncultured soil bacterium). The assay is described as above.
With B1, the binding result is reported as “binds”.

B2: the binding result is “binds”.

On to B3, for which the binding result is recorded as “binds”.

A further assay concerns the target Tcp11_M1_A (Actinoplanes teichomyceticus). The assay is described as follows: cell-based or functional assay.
Consider B1, for which the “Formed PPi (PPi release assay), D-HPG 0.1 mM” value (shortened to “Formed PPi … D-HPG 0.1 mM”) came out at 0 mM/min/mM enzyme; the “Formed PPi (PPi release assay), D-HPG 1 mM” value (“Formed PPi … D-HPG 1 mM” for short) came to 0.86 mM/min/mM enzyme; the “Formed PPi (PPi release assay), D-PG 1 mM” value (from here on “Formed PPi … D-PG 1 mM”) was determined as 0 mM/min/mM enzyme; the “Formed PPi (PPi release assay), L-HPG 0.1 mM” value (“Formed PPi … L-HPG 0.1 mM” for short) came out at 1.38 mM/min/mM enzyme. The “Formed PPi (PPi release assay), L-HPG 1 mM” value (“Formed PPi … L-HPG 1 mM” below) was determined as 1.54 mM/min/mM enzyme and the “Formed PPi (PPi release assay), L-PG 1 mM” value (“Formed PPi … L-PG 1 mM” for short) worked out at 0.09 mM/min/mM enzyme.

With B2, the “Formed PPi … D-HPG 0.1 mM” value stood at 0.08 mM/min/mM enzyme; the “Formed PPi … D-HPG 1 mM” value came out at 0.66 mM/min/mM enzyme; the “Formed PPi … D-PG 1 mM” value is 0 mM/min/mM enzyme; the “Formed PPi … L-HPG 0.1 mM” value amounted to 0.8 mM/min/mM enzyme. Moreover, the “Formed PPi … L-HPG 1 mM” value came out at 1.03 mM/min/mM enzyme and the “Formed PPi … L-PG 1 mM” value was 0.17 mM/min/mM enzyme.

Consider B3, for which the “Formed PPi … D-HPG 0.1 mM” value was determined as 0.11 mM/min/mM enzyme; the “Formed PPi … D-HPG 1 mM” value came out at 0.63 mM/min/mM enzyme; the “Formed PPi … D-PG 1 mM” value is 0.04 mM/min/mM enzyme; the “Formed PPi … L-HPG 0.1 mM” value turned out to be 0.95 mM/min/mM enzyme. Further, the “Formed PPi … L-HPG 1 mM” value was determined as 1.04 mM/min/mM enzyme and the “Formed PPi … L-PG 1 mM” value amounted to 0.23 mM/min/mM enzyme.

In a further assay the target is Veg8_M1_A (uncultured soil bacterium). The assay is described as follows: cell-based or functional assay.
Chain of Veg8_M1_A (uncultured soil bacterium) (chain, as listed by the source): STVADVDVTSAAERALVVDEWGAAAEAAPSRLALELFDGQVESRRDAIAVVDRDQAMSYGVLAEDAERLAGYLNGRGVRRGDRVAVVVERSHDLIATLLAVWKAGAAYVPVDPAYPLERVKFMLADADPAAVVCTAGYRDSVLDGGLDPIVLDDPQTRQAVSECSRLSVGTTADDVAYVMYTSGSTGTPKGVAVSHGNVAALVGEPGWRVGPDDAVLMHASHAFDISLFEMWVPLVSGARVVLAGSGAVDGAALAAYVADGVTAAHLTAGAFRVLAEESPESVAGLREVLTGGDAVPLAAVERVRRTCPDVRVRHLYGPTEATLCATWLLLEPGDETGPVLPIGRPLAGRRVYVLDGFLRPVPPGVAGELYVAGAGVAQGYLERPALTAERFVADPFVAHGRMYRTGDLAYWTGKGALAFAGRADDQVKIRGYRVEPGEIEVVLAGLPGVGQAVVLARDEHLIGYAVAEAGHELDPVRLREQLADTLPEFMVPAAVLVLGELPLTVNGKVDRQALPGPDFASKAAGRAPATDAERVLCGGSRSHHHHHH
As for B1, the “Formed PPi … D-HPG 0.1 mM” value was 0.18 mM/min/mM enzyme; the “Formed PPi … D-HPG 1 mM” value was 1.39 mM/min/mM enzyme; the “Formed PPi … D-PG 1 mM” value was found to be 0.02 mM/min/mM enzyme; the “Formed PPi … L-HPG 0.1 mM” value was 0.61 mM/min/mM enzyme. Moreover, the “Formed PPi … L-HPG 1 mM” value was found to be 0.61 mM/min/mM enzyme and the “Formed PPi … L-PG 1 mM” value worked out at 0.2 mM/min/mM enzyme.

Take B2: the “Formed PPi … D-HPG 0.1 mM” value is 0.14 mM/min/mM enzyme; the “Formed PPi … D-HPG 1 mM” value turned out to be 0.92 mM/min/mM enzyme; the “Formed PPi … D-PG 1 mM” value is 0.01 mM/min/mM enzyme; the “Formed PPi … L-HPG 0.1 mM” value stood at 0.56 mM/min/mM enzyme. Further, the “Formed PPi … L-HPG 1 mM” value turned out to be 0.59 mM/min/mM enzyme and the “Formed PPi … L-PG 1 mM” value is 0.17 mM/min/mM enzyme.

As for B3, the “Formed PPi … D-HPG 0.1 mM” value came out at 0.17 mM/min/mM enzyme; the “Formed PPi … D-HPG 1 mM” value worked out at 1.03 mM/min/mM enzyme; the “Formed PPi … D-PG 1 mM” value stood at 0.02 mM/min/mM enzyme; the “Formed PPi … L-HPG 0.1 mM” value was found to be 0.7 mM/min/mM enzyme. The “Formed PPi … L-HPG 1 mM” value was 0.64 mM/min/mM enzyme and the “Formed PPi … L-PG 1 mM” value is 0.14 mM/min/mM enzyme.

Another assay deals with Tcp9_M1_AT (Actinoplanes teichomyceticus). The assay is described as follows: cell-based or functional assay.
Chain of Tcp9_M1_AT (Actinoplanes teichomyceticus) (chain, as listed by the source limits assumed): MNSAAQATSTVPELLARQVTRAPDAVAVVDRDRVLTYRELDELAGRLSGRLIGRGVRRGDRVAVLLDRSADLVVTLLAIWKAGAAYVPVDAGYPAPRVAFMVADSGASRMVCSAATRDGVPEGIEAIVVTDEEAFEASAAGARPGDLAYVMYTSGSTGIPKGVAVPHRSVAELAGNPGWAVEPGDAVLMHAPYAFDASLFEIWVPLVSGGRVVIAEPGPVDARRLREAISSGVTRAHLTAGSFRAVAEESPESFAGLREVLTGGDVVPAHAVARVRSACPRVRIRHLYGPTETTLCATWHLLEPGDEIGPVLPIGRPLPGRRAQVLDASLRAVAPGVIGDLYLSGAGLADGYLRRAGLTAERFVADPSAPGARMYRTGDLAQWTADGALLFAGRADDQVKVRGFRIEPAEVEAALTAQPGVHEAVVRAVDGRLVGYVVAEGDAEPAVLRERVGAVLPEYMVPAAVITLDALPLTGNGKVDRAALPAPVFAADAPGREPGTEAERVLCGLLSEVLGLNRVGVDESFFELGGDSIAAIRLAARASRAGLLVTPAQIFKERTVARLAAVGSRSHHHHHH
Consider B1, for which the “Formed PPi … D-HPG 0.1 mM” value was found to be 3.72 mM/min/mM enzyme; the “Formed PPi … D-HPG 1 mM” value worked out at 8.44 mM/min/mM enzyme; the “Formed PPi … D-PG 1 mM” value stood at 0.07 mM/min/mM enzyme; the “Formed PPi … L-HPG 0.1 mM” value is 1.23 mM/min/mM enzyme. The “Formed PPi … L-HPG 1 mM” value came to 1.4 mM/min/mM enzyme and the “Formed PPi … L-PG 1 mM” value is 2.32 mM/min/mM enzyme.

For B2, the “Formed PPi … D-HPG 0.1 mM” value was found to be 2.07 mM/min/mM enzyme; the “Formed PPi … D-HPG 1 mM” value worked out at 5.28 mM/min/mM enzyme; the “Formed PPi … D-PG 1 mM” value was found to be 0.05 mM/min/mM enzyme; the “Formed PPi … L-HPG 0.1 mM” value turned out to be 1.18 mM/min/mM enzyme. Moreover, the “Formed PPi … L-HPG 1 mM” value was 1.16 mM/min/mM enzyme and the “Formed PPi … L-PG 1 mM” value was 1.32 mM/min/mM enzyme.

For B3, the “Formed PPi … D-HPG 0.1 mM” value worked out at 1.71 mM/min/mM enzyme; the “Formed PPi … D-HPG 1 mM” value is 4.63 mM/min/mM enzyme; the “Formed PPi … D-PG 1 mM” value was 0.05 mM/min/mM enzyme; the “Formed PPi … L-HPG 0.1 mM” value is 1.2 mM/min/mM enzyme. In addition, the “Formed PPi … L-HPG 1 mM” value was 1.34 mM/min/mM enzyme and the “Formed PPi … L-PG 1 mM” value worked out at 1.44 mM/min/mM enzyme.
